# Measured values from patent US20220154156A1, “PROTEINS AND METHODS FOR DISRUPTING BACTERIAL COMMUNICATION” (REGENTS OF THE UNIVERSITY OF MINNESOTA, priority 2019, published 2022).
# B1: SsoPox W263I: improved variant of the hyperthermostable lactonase SsoPox from Sulfolobus solfataricus, exhibiting higher catalytic rates (protein, UniProt Q97VT7 1-314, looked up, variant W263I)
# Aryldialkylphosphatase: MRIPLVGKDSIESKDIGFTLIHEHLRVFSEAVRQQWPHLYNEDEEFRNAVNEVKRAMQFGVKTIVDPTVMGLGRDIRFMEKVVKATGINLVAGTGIYIYIDLPFYFLNRSIDEIADLFIHDIKEGIQGTLNKAGFVKIAADEPGITKDVEKVIRAAAIANKETKVPIITHSNAHNNTGLEQQRILTEEGVDPGKILIGHLGDTDNIDYIKKIADKGSFIGLDRYGLDLFLPVDKRNETTLRLIKDGYSDKIMISHDYCCTIDIGTAKPEYKPKLAPRWSITLIFEDTIPFLKRNGVNEEVIATIFKENPKKFFS
# Assays:
# [1] = system: Clavibacter michiganensis subsp. Nebraskensis; assay: Corn infection assay; format: in vivo; details: lactonase spray
# Description: FIG. 31 show control of plant infections by a single spraying of 1 mL of lactonase solution (10 mg/mL) on corn leaves. The Viking maize seed (40-30UP) were grown in Euro pot (diameter 8 inch) with sterilized soil mixture (50 standard soil/50 Germinating Mix) in a green house under diurnal conditions with 16 hours lights at 22° C. and 8 hours dark at 18° C. Plant leaves were infected with Clabibacter michiganensis subsp. nebraskensis by dipping the clipped leaf into cell suspension ([…]). Shown are duplicates plants for the control treatment (left) and lactonase treatment (right).
# Moreover, we specifically established a corn infection assay using the pathogen Clavibacter michiganensis subsp. Nebraskensis.
# [2] = system: corrosion tubercles on steel coupons; assay: Biocorrosion of coated steel coupons in Duluth-Superior Harbor water, 8 weeks; set-up: concentration or dose not given beside the values; details: silica gel coating, two months in DSH water
# Description: The steel coupons were washed with soap water, lightly brushed for a few seconds with a test tube brush, and then rinsed with Milli-Q water to remove any loose material. Each coupon was designated with a unique number and weighed before being randomly assigned to a specific experimental treatment.
# Each compound or enzyme was added to 5 ml of the silica gel matrix to develop different coating treatments. These coatings were applied by dipping coupons into the appropriate gel mixture for 1 minute, and then the coating on the coupon surface was air-dried at room temperature for 2 hours.
# Six treatments and three controls were investigated for corrosion rate and changes in bacterial communities (Table 10). Each treatment or control contained three replicate steel coupons. After the triplicate steel coupons were coated with each biochemical, enzyme or bacterial treatment, they were incubated in experimental microcosms constructed from 10-gallon glass aquaria (Aqueon Glass, 50.8 cm×25.4 cm×30.5 cm) (FIG. 24). Each microcosm was equipped with an aquarium pump (Aquarium Systems Mini-Jet 404) to constantly circulate the water (˜2 L hr−1), and covered with a piece of acrylic with one corner cut out to allow gas exchange. The coupons were hold with plastic holders and immersed in water taken from the DSH for 8 weeks and then recovered for analyses.
# The coupons in each treatment was photographed by the end of the experiment. Biocorrosion was evaluated by the number and coverage of corrosion tubercles, and also by imaging of coupon surfaces with an environmental scanning electron microscope (ESEM). The coupon images were captured with DSLR camera immediately after being removed from the harbor water, and then tubercle numbers and total area in digital images were measured using the analyze menu within ImageJ software (NIH, Bethesda, Md., USA). Surface roughness measurements were also made after the exposed coupons were cleaned with ASTM G1-90 iron and steel chemical cleaning procedure (2 min in 37% HCl, 50 g/L SnCl2). A Hitachi TM-3030 ESEM was used to view details of the cleaned coupon surface and the 3D-View software was used to generate surface roughness measurements (SRa). Statistics analysis (T-tests) of the tubercle numbers, coverage and surface roughness were performed using Microsoft Excel software.
# [3] = system: Xanthomonas translucens pv. undulosa LMG892; assay: Wheat leaf infection; format: in vivo; details: single spraying of 1 mL, 10 mg/mL
# Description: FIG. 30A-30F show control of plant infections by a single spraying of 1 mL of lactonase solution (10 mg/mL) on plant leaves and crop. (A) and (B) Soft rot potato assay.
# Specifically, we could establish infection systems for corn, wheat, and barley plants, and a crop infection system for potato (tubers and leaves).
# [4] = system: suspension soil microbial community; assay: Effect of lactonase on suspension soil community; format: cell-based; details: 0.5 mg/mL, days 3 and 7
# Description: Inoculum were prepared by re-suspending about 5 grams of soil (taken outside GortnerLab building, Saint Paul Campus, Saint Paul, Minn., USA) in 40 mL of water. After a homogenous mixture was achieved, the suspension was lightly centrifuged (5 min, 500×g) and 200 uL of the cloudy supernatant was added to 30 mL of LB media and allowed to grow overnight. This inoculum was used to inoculate 15× diluted LB media (in water) cultures. […] Samples were collected for DNA extraction after 3 and 7 days.
# All samples were processed using Mothur v1.35.1. For each sample, 1,250 sequences were used for final analyses. […] Analysis of similarity (ANOSIM) and analysis of molecular variances (AMOVA) were used to evaluate the beta diversity (community composition) among samples using Bray-Curtis dissimilarity matrices (BC) (Bray & Curtis 1957; Clarke 1993). Ordination of Bray-Curtis matrices was performed using principal coordinate analysis (PCoA) to further analyze diversity of sample days throughout the tank (Anderson & Willis 2003). To visualize the distribution of taxonomies and diversities in microbial communities among the samples, R v3.3.1 was used to conduct the normalized relative abundance and OTUs at genus level^45. All of alpha values evaluated at α=0.05.
molecule,measurement,setting,value
B1,symptoms of infection in corn plants,[1],protected the plant from showing any symptoms of infection
same,reduction of the coverage of corrosion tubercles,[2],50%
same,reduction of the number (formation) of corrosion tubercles,[2],50%
same,leaf spots on wheat leaves,[3],Absence of leaf spots
same,composition of suspension community vs inactive variant,[4],communities are significantly different
